Measured values published in the nanobody polyreactivity screen of Harvey et al. (2022).

Test: yeast display, Sf9 membrane polyspecificity reagent, FACS + sequencing; frameworks hold sequencing errors
Procedure, shortened: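 Using colony PCR, genes from sorted yeast display clones were amplified, then sequenced on MiSeq at 2 × 250 and filtered by CDR length. The clones had been stained with 10% biotinylated, detergent-solubilized Sf9 membrane reagent for 1 hour at 4 °C and sorted by FACS into low and high (top ~1%) gates on anti-HA and streptavidin fluorescence. Polyreactivity labels come from the gate of origin.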

Row | Sequence | polyreactivity (PSR sort gate)
1 | QVQLVESGGGLVQAGGSLRLSCAASGITFYYYAMGWYRQAPGKERELVAAISFRGGSTYYADSVKGRFTISRDNAKNTVYLQMNSLKPEDTAVYYCAAETSPSWYTWVTYDYWGQGTKVTVSS | high polyreactivity
2 | QVQLVESGGGLVQAGGSLRLICAASGSIIAINVMGWYRQAPGKEREFVAAISVRSGSTYYADSVKGRFTISRDNAKNTVYLQMNSLKPEDTAVYYCAARTSRFWRGGGLDYWGQGTQVTVSS | high polyreactivity
3 | QVQLVESGGGIVQAGGSLRLICAASGIIFPVYAMGWYRPAPGKERELVAAISRSGGSTYYADSVKGRFTISRDHAKNTVYLQMNSLKPEDTAVYYCAARYVVGYSLSSYGYWGQGTQVTVSS | high polyreactivity
4 | QVQLVESGGGLVQAGGSLRLSCAASGSIFTPYAMGWYRQAPGKERELVAAITYSGGSTYYADSVKGRFTISRDNAKNTVYLLMNSLKPEDTAVYYCAAYFNIYGLEYDYWGQGTQVTVSS | high polyreactivity
5 | QVHHEETGGGLVQAGGSLRLSCSASGRTFVYYDMGWYRHATGKERQLVAAIDSSGSTYYADSVKGRFTISRDNAKNTVYLQMNSLKPEDSAVYYCGAGYWFFPYWYDYWGQGTQVTVSS | high polyreactivity
6 | QVQLVESGGGLVQAGGSLRLSCAASGFIFWRNAMGWDRQAPGKDRELVATISRSGGSTYYADSVKGRFTISRDTAKNTVYLQMNSLKPEDTAVYYCATVPWYYWGTHRTLYDYWGQGTQVTVSS | high polyreactivity
7 | QVQLVESGGGLVQAGGSLRLSCAASGSTIYYYAMGWYRQAPGKERELVASISDDGSTNYADSVKGRFTISRDNAKNTVYLQMNSLKPEDTAVYYCAAVWWHQFGSAWYQMGYWGQGTQVTVSS | low polyreactivity
8 | QVQLVESGGGLVQAGGSLRLSCAASGSTFPKYAMGWYRPAPGKERELVAAITSRGSTYADSVKGRFTISRDNAKNTVYLPMNSLKPVDTAVYYCAKDSRYASRDYWGQGTQVTVSS | high polyreactivity
9 | QVQLVESGGGLVQAGGSLRLSCAASGIIFRQYAMGWSRQEPGKERELVAGITGTGSTYYADSVKGRFTISRDNAKNTVYLQLNSLKPEETAVYYCATRSFRVFYPYPYDYWGQGTQVTVSS | high polyreactivity
10 | QVQLVESGGGLVQAGGSLRLSCAASGRTFGPYTMGWYRQAPGKEREFVAAINSSGSRTYYADSVKGRFTISRDNAKNTVYLQMNSLKPEDTAVYYCAAEAKWYYSWSYPYEGDYWGQGSQVTVSS | low polyreactivity
11 | QVQLVESGGGLVQAGGSLRLSCAASGRTFKRNAMGWYRQAPGKEREFVAVITGSGGSTYYADSVKGRFTISRDNAKNTVYLQMNSLKPEDTAVYYCAAQATRYGQYTYDYWGQGTQVTVSS | high polyreactivity
12 | QVQLVESGGGLVQAGGSLRLSCAASGRTFVGYAMGWYRQSPGKERELVAAISTSGGRTYYADSVKGRFTISRDNAKYTVYLQMNSLKPEDTAVYYCAAGFRASIGYVTEYYWGQGTQVTVTS | high polyreactivity
13 | QVQLVESGGGLVQAGGSLRLSCAASGSTFAPNAMGWYRQAPGKERELVAAIRTNTGSTYYADSVKGRFTISRDNAKNTVYLQMNSLKPEDTAVYYCAAVFSGFYYAYDYWGQGTQVTVSS | high polyreactivity
14 | QVQLVESGGGLVQAGGSLRLSCAASGSTFIGFAMGWYRQAPGKERELVAAITSDGRTNYADSVKGRFTISRDNAKNTVYLQMNSLKPEDTAVYYCAAQILGTFYEYDYWGQGTQVTVSS | low polyreactivity
15 | QVQLVESGGGLVQAGGSLRLSCAASGRIFSYYAMGWYRQAPGKERELVASISRSGGSTYYANSVKGRFTISRDNAKNTVYLQMNSLKPEDTAVYYCNAEARYTGFAYSYFNSDYWGQGTQVTVSS | low polyreactivity
16 | QVQLVESGGGLVQAGGSLRLSCAASGSIFRPNALGWYRQAPGKERELVAAITWSGDSTYYADSVKGRFTISRDNAKNTVYLQINSLKPEDTAVYYCAVVSYKVTESGIRMYYWGQGTQVTVSS | low polyreactivity

Row | Sequence | polyreactivity (PSR sort gate)
17 | QVQLVESGGGLVQAGGSLRLSCAASGRIFRYYAMGWYRQAPGKERELVADSTRGGGSTYYADSVKGRFTISRDNAKNTVYLQMNSLKPEDTAVYYCAKDGSGGLPVLYRYRYDYWGQGTQVTVSS | high polyreactivity
18 | QVQLVESGGGIVQAGGSLRLSCAASGSIFYQYAMGWYRQAPGKERELVAAISRSGGSTYYADSVKGRFTISRDNAKNNVYLQMNSLKPVDTAVYYCAARAVRAAYDYWGQGTQVTVSS | low polyreactivity
19 | QVQLVESGGGLVQAGGSLRLSCAASGRIFPRNAMGWYSPAPGKERELVAAITRAGSTYYADSVKGRFTISRDNAKNTVYLQLNSLKPEDTAVYYCNRQWHRDVYGHDYWGQGTQVTVSS | high polyreactivity
20 | QVQLVESGGGLVQAGGSLRLSCAASGGTLAYYAMGWYRQAPGKERELVAAITRSGGSTYYSDSVKGRFTISRDNAKNTVYLQMNSLNPEVTAVYYCAALLAYWKNRWHIEYDYWGQGTQVTVSS | low polyreactivity
21 | QVQLVESGGGLVQAGGSLRLSCAASGFTFFLYTMGWYRQAPGKERELVATITSAGTTNYADSVKGRFTISRDNAKNTVYLQMHSLKPEDTAVDYCNADRWEYDYWGQGTQVTVSS | low polyreactivity
22 | QVQLVESGGGLVQAGGSLRLSCAASGRTFGPYALGWYRQAPGKERELVATSSSNGASTYYADSVKGRFTISRDNAKNTVYLQMNSLKPEDTAVYYCAAEFHFWGYLYDYWGQGTQVTVSS | low polyreactivity
23 | QVQLVESGGGLVQAGGSLRLSCAASGRIFVGYAMGWYRQAPGKEREFVAAISRNGGRTYYADSVKGRFTISRDNAKNTVYLQMNSLKPEDTAVYYCATEKYVPSPGGYWGQGTQVTVSS | high polyreactivity
24 | QVQLVESGGGLVQAGGSLRLSCAASGSTFAANAMGWYRQAPGKERELVATISYRGGSTYYADSVKGRFTISRDNAKNTVYLQMNSLKPEDTAVYYCAAKLYYAFYSRYNYWGQGTQVTVSS | high polyreactivity
25 | QVQLVESGGGLVQAGGSLRLSCAASGSIFHWNAMGWYRQAPGKERELVAGITTSGGTTYYADSVKGRFTISRDNAKNTVYLQMNSLKPEDTAVYYCAARIIRWRPRWPSYGKYDYWGQGTQVTVSS | low polyreactivity
26 | QVQLVESGGGLVQAGGSLRLSCAASGSIFTSNAMGWYRQAPGKERELVAAITSDGAITYADSVKGRFTISRDNAKNTVYLQMNSLKPEDTAVYYCATEIEYYVGSVADMGYWGQGTQVTVSS | low polyreactivity
27 | QVQLVESGGGLVQAGGSLRLSCAASGYTFIYYAMGWYRQAPGKERELVATISIDGSTNYADSVKGRFTISRDNAKYSVYLQMNSLKREDTAVYYCNRERYEDYDYWGQGTQVTVSS | high polyreactivity
28 | QVQLVESGGGLVQAGGSLRLSCAASGFTFGNNAMGWYRQAPGKERELVAGISRTGGRTYYADSVKGRFTISRDNAKNTVYLQMNSLKPEDTAVYYCNAVSTLYTGYDYWGQGTQVTVSS | high polyreactivity
29 | QVQLVESGGGLVQAGGSLRLSCAASGSIFVNNAMGWYRQAPGKERELVAAISRSGTRTYYADSVKGRFTISRDNAKNTVYLQMNSLKPEDTAVYYCAVDYYYRMDYWGQGTQVTVSS | high polyreactivity
30 | QVQLVESGGGLVQAGGSLRLICAASGLTFSIYAMGWYRQAPGKERELVAAITGRGGRTYYADSVKGRFTISRDNAKNTVYLQMNSLKPEDTAVYYCAARYRGTDFDYWGQGTQVTVSS | high polyreactivity
31 | QVQLVESGGGLVQAGGSLRLSCAASGIIFKRYAMGWYRQAPGKERELVATITRDGRTSYADSVKGRFTISRDNAKNTVYLQMNSLKPEDTAVYYCNKRGTYAPPTPGNLFDYWGQGTQVTVSS | low polyreactivity
